# Results reported in patent US20070032637A1.
# Target: EGFR on A431 cells (human squamous cell carcinoma cells) (human) (UniProt P00533)
# Assay: inhibition of the binding of Eu-EGF (10 nM) to A431 cells, time-resolved fluorescence; blocked ligand: Eu-EGF
substance,measurement,value
anti-EGFR monoclonal antibody Ab-3 (Oncogene),IC50 (read off the curve),0.6 µg/mL
